From patent US20030143692A1, “Methods and compositions for modulating integrin-mediated cell-cell interactions” (priority 2000, published 2003)

Columns and labels:
[1] = test system: endothelial cells; test: Murine MATRIGEL plug angiogenesis model; assay type: in vivo, female athymic (BALB/c nu/nu) mice
Experimental: The angiogenic activity of ADAM 23 was evaluated in the murine MATRIGEL plug angiogenesis model. On day 0, ice-cold MATRIGEL (Becton-Dickinson, Bedford, Mass.) containing either vascular endothelial growth factor (VEGF, Pepro Tech, Inc., Rocky Hill, N.J.), basic fibroblast growth factor (bFGF, Pepro Tech, Inc., Rocky Hill, N.J.), […], saline buffer (PBS) or recombinant ADAM 23 disintegrin domain (dd) expressed as a GST fusion protein (GST-ADAM23dd) was implanted subcutaneously in female athymic (BALB/c nu/nu; Harlan, Indianapolis, Ind.) mice. The MATRIGEL polymerized immediately after implantation into mice forming a gel plug. On day 7, individual MATRIGEL plugs were harvested, fixed in 10% buffered formalin, embedded in paraffin, sectioned, and stained with hematoxylin-eosin. The number of endothelial cells present in each plug section was measured using a video imaging system (Image Pro-Plus, Empire Imaging, Princeton, N.J.). Fifty fields (at 20×) per plug section were randomly counted. Data are presented as “Average Number of Migrating Cells” and the p-value was determined using a two-tailed Student T-Test.

[2] = test system: NB100 human neuroblastoma cells; test: Cell adhesion assay on coated wells, NB100 cells; assay type: cell-based; settings: for cell adhesion to wells coated with the protein: bound cells stained and quantified
Experimental: Cell adhesion assays were performed in accordance with procedures described by Luque et al. (FEBS Lett 1994 346:278-284). In these assays, 96-well immunoplates (MaxiSorp, Nunc, Denmark) were coated with 0.1 ml of PBS containing different amounts of BSA, glutathione S-transferase (GST), and ADAM 23/GST. After incubating 16 hours at 4° C., wells were blocked with DMEM containing 2.5% BSA, for 2 hours at 37° C. Then, NB100 neuroblastoma cells (approximately 50,000 cells per well) were added in Dulbecco's modified Eagle's medium (DMEM) supplemented with 1% BSA and incubated at 37° C. for 2 hours. For experiments directed to analyze the effect of divalent cations, the cells were washed three times in PBS, and resuspended in the same buffer supplemented either with 1 mM MgCl2, 50 μM MnCl2, 1 mM CaCl2, or 1 mM MgCl2 plus 5 mM EDTA. Non-bound cells were removed by rinsing the wells with serum-free medium, whereas bound cells were fixed with methanol and stained with Giemsa. Cells were counted per unit area with the aid of an inverted light microscope, using a 20× high powered objective and an ocular grid. For inhibition studies cells were pretreated for 30 minutes before the addition to the coated wells of mAb LM 609 (used at 1:400 dilution of ascites) or synthetic peptides (20 or 40 μg/ml) corresponding to the disintegrin loop of ADAM 23 (AVNEDCDIT, peptide 330 (SEQ ID NO:1)) or a “scrambled” peptide (DCVTNIAE, peptide 331 (SEQ ID NO:4)). In all cases, experimental treatments were performed in triplicate with a minimum of three areas counted per well.

[3] = test system: ADAM 23 mediated adhesion of NB100 neuroblastoma cells; test: Inhibition of ADAM 23 mediated adhesion of NB100 cells; assay type: cell-based, human; settings: NB100 cells incubated with peptide (20 or 40 μg/ml) prior to seeding
Experimental: Cell adhesion assays were performed in accordance with procedures described by Luque et al. (FEBS Lett 1994 346:278-284). In these assays, 96-well immunoplates (MaxiSorp, Nunc, Denmark) were coated with 0.1 ml of PBS containing different amounts of BSA, glutathione S-transferase (GST), and ADAM 23/GST. After incubating 16 hours at 4° C., wells were blocked with DMEM containing 2.5% BSA, for 2 hours at 37° C. Then, NB100 neuroblastoma cells (approximately 50,000 cells per well) were added in Dulbecco's modified Eagle's medium (DMEM) supplemented with 1% BSA and incubated at 37° C. for 2 hours. For experiments directed to analyze the effect of divalent cations, the cells were washed three times in PBS, and resuspended in the same buffer supplemented either with 1 mM MgCl2, 50 μM MnCl2, 1 mM CaCl2, or 1 mM MgCl2 plus 5 mM EDTA. Non-bound cells were removed by rinsing the wells with serum-free medium, whereas bound cells were fixed with methanol and stained with Giemsa. Cells were counted per unit area with the aid of an inverted light microscope, using a 20× high powered objective and an ocular grid. […] In all cases, experimental treatments were performed in triplicate with a minimum of three areas counted per well.

[4] = test system: HeLa; test: Cell adhesion assay on coated wells, HeLa cells; assay type: cell-based
[5] = test system: T47D; test: Cell adhesion assay on coated wells, T47D cells; assay type: cell-based
[6] = biological target: T1, α5β1 (Homo sapiens, UniProt P05556+P08648); test: Sepharose bead binding of purified integrin (SDS-PAGE / Western blot)
T1 construct: purchased Chemicon International Inc., Temecula, Calif
T1 sequence (P08648 42-894 limits assumed): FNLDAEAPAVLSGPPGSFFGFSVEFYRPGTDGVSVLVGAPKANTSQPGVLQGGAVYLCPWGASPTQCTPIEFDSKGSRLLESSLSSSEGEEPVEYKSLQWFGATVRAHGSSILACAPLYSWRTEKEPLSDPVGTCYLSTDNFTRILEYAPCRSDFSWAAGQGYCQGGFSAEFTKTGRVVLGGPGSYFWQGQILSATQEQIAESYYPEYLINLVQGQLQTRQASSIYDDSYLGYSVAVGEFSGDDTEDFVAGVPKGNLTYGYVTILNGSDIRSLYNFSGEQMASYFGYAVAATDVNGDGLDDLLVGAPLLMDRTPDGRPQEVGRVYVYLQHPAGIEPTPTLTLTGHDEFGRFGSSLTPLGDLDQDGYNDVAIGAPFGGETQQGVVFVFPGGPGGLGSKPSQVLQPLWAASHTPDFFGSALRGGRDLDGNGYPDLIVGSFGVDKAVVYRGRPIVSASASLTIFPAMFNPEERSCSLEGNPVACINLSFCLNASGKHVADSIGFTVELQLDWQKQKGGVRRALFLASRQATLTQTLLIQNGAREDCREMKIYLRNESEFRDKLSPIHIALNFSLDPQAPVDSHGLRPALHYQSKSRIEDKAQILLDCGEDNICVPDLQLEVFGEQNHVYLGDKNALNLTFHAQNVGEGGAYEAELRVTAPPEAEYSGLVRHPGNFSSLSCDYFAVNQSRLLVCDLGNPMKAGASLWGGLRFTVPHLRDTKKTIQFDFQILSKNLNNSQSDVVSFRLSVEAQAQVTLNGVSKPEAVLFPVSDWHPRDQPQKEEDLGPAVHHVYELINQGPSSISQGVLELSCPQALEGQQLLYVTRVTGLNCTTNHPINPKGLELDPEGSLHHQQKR
T1 sequence (P08648 895-1049 partner limits assumed): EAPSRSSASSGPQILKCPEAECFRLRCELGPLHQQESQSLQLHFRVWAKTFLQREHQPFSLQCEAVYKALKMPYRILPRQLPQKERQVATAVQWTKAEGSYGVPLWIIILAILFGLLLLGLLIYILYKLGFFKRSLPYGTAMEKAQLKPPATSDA
T1 sequence (P05556 21-798): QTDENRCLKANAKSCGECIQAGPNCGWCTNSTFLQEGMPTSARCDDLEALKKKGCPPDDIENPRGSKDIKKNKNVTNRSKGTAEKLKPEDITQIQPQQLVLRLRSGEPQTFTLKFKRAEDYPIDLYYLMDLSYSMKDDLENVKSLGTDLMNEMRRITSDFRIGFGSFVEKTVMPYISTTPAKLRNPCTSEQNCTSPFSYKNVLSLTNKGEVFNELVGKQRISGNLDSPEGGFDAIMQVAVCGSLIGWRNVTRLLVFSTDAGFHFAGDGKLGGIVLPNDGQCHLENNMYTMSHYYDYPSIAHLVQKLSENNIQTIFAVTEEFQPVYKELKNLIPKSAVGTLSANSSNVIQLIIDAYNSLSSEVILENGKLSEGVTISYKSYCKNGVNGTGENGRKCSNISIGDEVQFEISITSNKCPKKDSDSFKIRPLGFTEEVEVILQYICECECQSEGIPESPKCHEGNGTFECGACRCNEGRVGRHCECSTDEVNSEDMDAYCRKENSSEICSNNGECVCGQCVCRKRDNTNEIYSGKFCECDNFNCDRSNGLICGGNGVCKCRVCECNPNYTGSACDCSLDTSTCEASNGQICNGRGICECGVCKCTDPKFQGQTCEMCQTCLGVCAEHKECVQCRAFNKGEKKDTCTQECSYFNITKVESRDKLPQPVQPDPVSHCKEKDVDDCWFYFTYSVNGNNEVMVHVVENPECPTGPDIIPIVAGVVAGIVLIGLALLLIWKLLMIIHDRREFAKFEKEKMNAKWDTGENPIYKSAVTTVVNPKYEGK
Experimental: (§1) Purified integrins ([…] αvβ3, α1β1 or α5β1) (Chemicon International Inc., Temecula, Calif.) were incubated with Sepharose 4B beads containing 0.5 μg of disintegrin-GST, in a buffer containing 50 mM Tris-HCl, 200 mM NaCl and 0.2 mM MnCl2 (pH 7.4), for 4 hours at 37° C. After incubation, beads were washed six times with 200 μl of the same buffer to remove unbound protein. Beads were then resuspended in Laemmli buffer and after boiling, solubilized proteins were loaded in a 6% SDS-PAGE gel, and visualized by silver staining. Alternatively, samples were blotted to a nitrocellulose membrane and the presence of αv or β3 integrin subunits was detected using polyclonal antibodies raised against these subunits. Similarly, the putative presence of β1 integrin subunits was examined with the B3B11 monoclonal antibody (Chemicon International Inc.). Western-blots were visualized by enhanced chemiluminescence according to the manufacturer s instructions (ECL, Amersham).

[7] = biological target: T2, αvβ3 integrin (Homo sapiens, UniProt P05106+P06756); test: as above; settings: confirmed by Western blot
T2 construct: purchased Chemicon International Inc., Temecula, Calif
T2 sequence (P06756 31-889 limits assumed): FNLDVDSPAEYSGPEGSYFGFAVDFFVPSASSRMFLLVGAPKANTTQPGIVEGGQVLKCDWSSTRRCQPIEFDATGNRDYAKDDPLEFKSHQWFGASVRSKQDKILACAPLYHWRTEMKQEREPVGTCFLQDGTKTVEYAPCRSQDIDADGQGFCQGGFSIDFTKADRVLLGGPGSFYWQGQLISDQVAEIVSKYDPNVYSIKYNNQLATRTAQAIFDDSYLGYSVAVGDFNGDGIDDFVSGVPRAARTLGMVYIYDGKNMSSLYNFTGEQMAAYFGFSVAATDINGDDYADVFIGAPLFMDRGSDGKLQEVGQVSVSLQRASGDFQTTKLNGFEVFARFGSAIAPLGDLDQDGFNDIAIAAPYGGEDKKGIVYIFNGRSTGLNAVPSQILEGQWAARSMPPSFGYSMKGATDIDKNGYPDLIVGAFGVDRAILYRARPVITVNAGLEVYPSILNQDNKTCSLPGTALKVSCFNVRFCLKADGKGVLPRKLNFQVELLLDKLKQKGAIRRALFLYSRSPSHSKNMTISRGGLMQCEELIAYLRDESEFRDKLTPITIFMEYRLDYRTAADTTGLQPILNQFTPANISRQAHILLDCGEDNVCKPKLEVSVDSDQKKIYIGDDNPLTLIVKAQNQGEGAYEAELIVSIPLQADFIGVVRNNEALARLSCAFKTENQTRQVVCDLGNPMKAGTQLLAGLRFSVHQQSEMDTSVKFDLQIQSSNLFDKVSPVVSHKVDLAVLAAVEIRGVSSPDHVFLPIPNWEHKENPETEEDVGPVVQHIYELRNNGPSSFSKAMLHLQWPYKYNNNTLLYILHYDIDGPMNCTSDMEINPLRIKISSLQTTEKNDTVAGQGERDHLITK
T2 sequence (P06756 891-1048 partner limits assumed): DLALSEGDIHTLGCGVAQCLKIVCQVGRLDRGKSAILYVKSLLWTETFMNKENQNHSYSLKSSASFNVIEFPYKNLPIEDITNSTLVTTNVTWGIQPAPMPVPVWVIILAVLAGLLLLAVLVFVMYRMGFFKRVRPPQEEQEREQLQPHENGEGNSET
T2 sequence (P05106 27-788): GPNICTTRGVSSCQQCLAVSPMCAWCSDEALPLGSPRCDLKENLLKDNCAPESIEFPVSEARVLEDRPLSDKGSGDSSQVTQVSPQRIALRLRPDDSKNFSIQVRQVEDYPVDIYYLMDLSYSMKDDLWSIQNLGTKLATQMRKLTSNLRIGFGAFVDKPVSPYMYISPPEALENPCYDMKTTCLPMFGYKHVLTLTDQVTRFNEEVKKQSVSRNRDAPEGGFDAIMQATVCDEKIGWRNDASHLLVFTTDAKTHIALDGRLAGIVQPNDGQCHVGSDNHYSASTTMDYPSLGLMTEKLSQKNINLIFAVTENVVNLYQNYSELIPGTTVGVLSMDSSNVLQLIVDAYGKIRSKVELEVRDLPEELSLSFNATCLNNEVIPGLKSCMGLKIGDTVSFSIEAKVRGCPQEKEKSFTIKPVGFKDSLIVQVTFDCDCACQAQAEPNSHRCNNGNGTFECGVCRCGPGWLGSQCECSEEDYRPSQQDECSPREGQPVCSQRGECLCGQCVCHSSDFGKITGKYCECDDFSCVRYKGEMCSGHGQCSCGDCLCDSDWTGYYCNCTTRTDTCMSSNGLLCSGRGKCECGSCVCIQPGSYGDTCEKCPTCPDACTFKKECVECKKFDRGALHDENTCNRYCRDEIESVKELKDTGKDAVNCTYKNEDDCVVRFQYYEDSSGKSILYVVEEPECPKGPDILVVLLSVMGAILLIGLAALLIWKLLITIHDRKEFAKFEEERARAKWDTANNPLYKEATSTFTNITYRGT
Experimental: as §1

[8] = biological target: T3, α1β1 (Homo sapiens, UniProt P05556+P56199); test: as above
T3 construct: purchased Chemicon International Inc., Temecula, Calif
T3 sequence (P56199 29-1179): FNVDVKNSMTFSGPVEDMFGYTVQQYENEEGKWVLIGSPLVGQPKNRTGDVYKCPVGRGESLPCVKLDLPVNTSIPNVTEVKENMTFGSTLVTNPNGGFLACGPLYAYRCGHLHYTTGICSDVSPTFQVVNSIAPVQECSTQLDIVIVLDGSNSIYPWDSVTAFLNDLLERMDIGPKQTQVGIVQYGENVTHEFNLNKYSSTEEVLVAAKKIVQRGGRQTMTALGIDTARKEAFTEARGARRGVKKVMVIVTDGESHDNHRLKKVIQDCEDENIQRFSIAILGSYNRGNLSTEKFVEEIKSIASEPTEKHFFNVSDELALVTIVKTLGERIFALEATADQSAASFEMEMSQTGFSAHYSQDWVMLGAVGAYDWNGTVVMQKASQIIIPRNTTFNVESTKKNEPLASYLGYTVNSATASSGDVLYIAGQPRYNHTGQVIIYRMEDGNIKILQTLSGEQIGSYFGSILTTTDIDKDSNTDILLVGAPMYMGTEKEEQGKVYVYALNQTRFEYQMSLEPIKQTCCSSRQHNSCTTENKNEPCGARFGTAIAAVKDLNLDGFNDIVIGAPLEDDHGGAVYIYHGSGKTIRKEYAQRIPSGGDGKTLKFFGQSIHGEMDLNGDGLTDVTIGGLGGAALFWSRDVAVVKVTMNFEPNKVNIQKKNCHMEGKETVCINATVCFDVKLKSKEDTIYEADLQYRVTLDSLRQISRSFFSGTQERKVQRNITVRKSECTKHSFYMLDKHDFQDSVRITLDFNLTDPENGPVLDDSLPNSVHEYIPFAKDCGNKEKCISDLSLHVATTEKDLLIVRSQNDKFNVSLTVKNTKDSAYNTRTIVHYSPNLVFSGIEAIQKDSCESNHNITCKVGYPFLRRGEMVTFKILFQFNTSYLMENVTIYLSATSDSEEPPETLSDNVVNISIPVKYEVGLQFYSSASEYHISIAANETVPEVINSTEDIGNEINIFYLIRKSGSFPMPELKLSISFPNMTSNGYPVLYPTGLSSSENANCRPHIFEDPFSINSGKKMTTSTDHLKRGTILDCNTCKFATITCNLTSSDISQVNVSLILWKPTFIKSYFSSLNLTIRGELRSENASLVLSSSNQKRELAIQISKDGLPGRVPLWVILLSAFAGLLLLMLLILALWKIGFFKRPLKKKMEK
T3 sequence (P05556 21-798): as the sequence (P05556 21-798) above
Experimental: as §1

[9] = test system: HT1080; test: Cell adhesion assay on coated wells, HT1080 cells; assay type: cell-based

GST: glutathione S-transferase, control protein for the fusion protein [reference compound]
angiogenic response (cells in MATRIGEL plug sections) ([1]; subcutaneous plug, harvested day 7): a significant number of cells was not observed
cell adhesion to wells coated with the protein [2]: did not support any significant cell adhesion

DCVTNIAE [pep331, reference compound]
effect of peptide on adherent cells on plates containing ADAM 23 [3]: this effect was not observed

albumin: albumin used as control coating of wells [reference compound]
cell adhesion to wells coated with the protein [2]: did not support any significant cell adhesion

fibronectin [reference compound]
cell adhesion to wells coated with the protein [2]: promoted cell adhesion

AVNECDIT [pep330]
effect of peptide on adherent cells on plates containing ADAM 23 [3]: significant loss of adherent cells

B1: ADAM 23-GST: recombinant ADAM 23 disintegrin domain expressed as a GST fusion protein in E. coli, about 40 kDa (protein)
chain: KLFEPTECGNGYVEAGEECDCGFHVECYGLCCKKCSLSNGAHCSDGPCCNNTSCLFQPRGYECRDAVNECDITEYCTGDSGQCPPNLHKQD
modifications: left off: a dimerising Fc or GST
notes: recombinant ADAM 23 disintegrin domain expressed as a GST fusion protein in E. coli, about 40 kDa
ADAM 23-mediated adhesion [4]: no significant ADAM 23-mediated adhesion
dose dependence of angiogenic response ([1]; 4, 20.5 or 61.5 μg/plug, day 7): dose-dependent
cell types in plug sections (microscopic histologic analyses) ([1]; day 7, hematoxylin-eosin): both endothelial and smooth muscle cells were present
dose dependence of ADAM 23-promoted cell adhesiveness [2]: dose-dependent
attachment of cells in the presence of divalent cations ([2]; Mn2+ and Mg2+): stimulated
cell adhesion to wells coated with the protein [2]: promoted cell adhesion
ADAM 23-mediated adhesion [5]: no significant ADAM 23-mediated adhesion
interaction with purified integrin [6]: did not reveal any evidence of interaction
bound αvβ3 integrin (αv and β3 bands) on protein-containing beads [7]: detected
interaction with purified integrin [8]: did not reveal any evidence of interaction
ADAM 23-mediated adhesion [9]: no significant ADAM 23-mediated adhesion
